These results are taken from patent publication US6783936.

In this test the target is one CLL cell line. Nature of the test: avidity constant derived from LD50 of complement dependent cytotoxicity on CLL cells.

Consider Lym-1 antibody, for which the avidity was 1.1e+08.
